Measured values: doi:10.1101/2024.11.10.622895
Several values for one entry are separate records, joined by “and”; a condition that tells them apart may be missing. Equal entries are not always repeated.

Target: tail tube protein (TTP) of Bacillus subtilis bacteriophage SPR (Bacillus subtilis bacteriophage SPR)
Assay: cryo-EM structure

For “tail tube protein (TTP) of Bacillus subtilis bacteriophage SPR (natural protein)”, the stoichiometry N was 5 and 6.
